The text below walks through data of publication PMC4968818.

The assay deals with voltage-dependent anion channel (VDAC) protein (human (endogenous in T47D)) (UniProt P21796). Description: co-IP; VDAC immunoprecipitated from cell lysate (anti-VDAC1/2/3, protein G agarose; lysate first blocked with 10 uM VDAC-binding membrane domain peptide), beads washed with PBS and incubated at RT for 50 min with recombinant HK at pH 7.8; western blots for HK-1, HK-2 and VDAC; band intensities normalized by VDAC bands. For orientation: In western blotting, separated proteins are transferred to a membrane and probed.

B1: recombinant hexokinase 1 (HK-1) (enzyme)
chain: MIAAQLLAYYFTELKDDQVKKIDKYLYAMRLSDETLIDIMTRFRKEMKNGLSRDFNPTATVKMLPTFVRSIPDGSEKGDFIALDLGGSSFRILRVQVNHEKNQNVHMESEVYDTPENIVHGSGSQLFDHVAECLGDFMEKRKIKDKKLPVGFTFSFPCQQSKIDEAILITWTKRFKASGVEGADVVKLLNKAIKKRGDYDANIVAVVNDTVGTMMTCGYDDQHCEVGLIIGTGTNACYMEELRHIDLVEGDEGRMCINTEWGAFGDDGSLEDIRTEFDREIDRGSLNPGKQLFEKMVSGMYLGELVRLILVKMAKEGLLFEGRITPELLTRGKFNTSDVSAIEKNKEGLHNAKEILTRLGVEPSDDDCVSVQHVCTIVSFRSANLVAATLGAILNRLRDNKGTPRLRTTVGVDGSLYKTHPQYSRRFHKTLRRLVPDSDVRFLLSESGSGKGAAMVTAVAYRLAEQHRQIEETLAHFHLTKDMLLEVKKRMRAEMELGLRKQTHNNAVVKMLPSFVRRTPDGTENGDFLALDLGGTNFRVLLVKIRSGKKRTVEMHNKIYAIPIEIMQGTGEELFDHIVSCISDFLDYMGIKGPRMPLGFTFSFPCQQTSLDAGILITWTKGFKATDCVGHDVVTLLRDAIKRREEFDLDVVAVVNDTVGTMMTCAYEEPTCEVGLIVGTGSNACYMEEMKNVEMVEGDQGQMCINMEWGAFGDNGCLDDIRTHYDRLVDEYSLNAGKQRYEKMISGMYLGEIVRNILIDFTKKGFLFRGQISETLKTRGIFETKFLSQIESDRLALLQVRAILQQLGLNSTCDDSILVKTVCGVVSRRAAQLCGAGMAAVVDKIRENRGLDRLNVTVGVDGTLYKLHPHFSRIMHQTVKELSPKCNVSFLLSEDGSGKGAALITAVGVRLRTEASS
On to B1, for which the amount co-precipitated at pH 7.8, percent of that at pH 6.2 is 143%.

B2: recombinant hexokinase 2 (HK-2) (enzyme)
chain: MIASHLLAYFFTELNHDQVQKVDQYLYHMRLSDETLLEISKRFRKEMEKGLGATTHPTAAVKMLPTFVRSTPDGTEHGEFLALDLGGTNFRVLWVKVTDNGLQKVEMENQIYAIPEDIMRGSGTQLFDHIAECLANFMDKLQIKDKKLPLGFTFSFPCHQTKLDESFLVSWTKGFKSSGVEGRDVVALIRKAIQRRGDFDIDIVAVVNDTVGTMMTCGYDDHNCEIGLIVGTGSNACYMEEMRHIDMVEGDEGRMCINMEWGAFGDDGSLNDIRTEFDQEIDMGSLNPGKQLFEKMISGMYMGELVRLILVKMAKEELLFGGKLSPELLNTGRFETKDISDIEGEKDGIRKAREVLMRLGLDPTQEDCVATHRICQIVSTRSASLCAATLAAVLQRIKENKGEERLRSTIGVDGSVYKKHPHFAKRLHKTVRRLVPGCDVRFLRSEDGSGKGAAMVTAVAYRLADQHRARQKTLEHLQLSHDQLLEVKRRMKVEMERGLSKETHASAPVKMLPTYVCATPDGTEKGDFLALDLGGTNFRVLLVRVRNGKWGGVEMHNKIYAIPQEVMHGTGDELFDHIVQCIADFLEYMGMKGVSLPLGFTFSFPCQQNSLDESILLKWTKGFKASGCEGEDVVTLLKEAIHRREEFDLDVVAVVNDTVGTMMTCGFEDPHCEVGLIVGTGSNACYMEEMRNVELVEGEEGRMCVNMEWGAFGDNGCLDDFRTEFDVAVDELSLNPGKQRFEKMISGMYLGEIVRNILIDFTKRGLLFRGRISERLKTRGIFETKFLSQIESDCLALLQVRAILQHLGLESTCDDSIIVKEVCTVVARRAAQLCGAGMAAVVDRIRENRGLDALKVTVGVDGTLYKLHPHFAKVMHETVKDLAPKCDVSFLQSEDGSGKGAALITAVACRIREAGQR
On to B2, for which the amount co-precipitated at pH 7.8, percent of that at pH 6.2 came to 213%.
